According to PMC11564096, “Structural and mechanistic insights into Streptococcus pneumoniae NADPH oxidase” (Nature Structural & Molecular Biology, 2024):

Substrate: NC(=O)C1=CN([C@@H]2O[C@H](COP(=O)(O)OP(=O)(O)OC[C@H]3O[C@@H](n4cnc5c(N)ncnc54)[C@H](O)[C@@H]3O)[C@@H](O)[C@H]2O)C=CC1
Experiment: purified protein
Format: biochemical, Streptococcus pneumoniae
Conditions: 100 µM bovine cytochrome c, 0.1 µM SpNOX, 1 µM FAD, 50 mM Tris pH 7.0, 250 mM NaCl, room temperature, aerobic

B1: SpNOX (Streptococcus pneumoniae NOX) (Streptococcus pneumoniae R6) (protein)
chain: EFSMKSVKGLLFIIASFILTLLTWMNTSPQFMIPGLALTSLSLTFILATRLPLLESWFHSLEKVYTVHKFTAFLSIILLIFHNFSMGGLWGSRLAAQFGNLAIYIFASIILVAYLGKYIQYEAWRWIHRLVYLAYILGLFHIYMIMGNRLLTFNLLSFLVGSYALLGLLAGFYIIFLYQKISFPYLGKITHLKRLNHDTREIQIHLSRPFNYQSGQFAFLKIFQEGFESAPHPFSISGGHGQTLYFTVKTSGDHTKNIYDNLQAGSKVTLDRAYGHMIIEEGRENQVWIAGGIGITPFISYIREHPILDKQVHFYYSFRGDENAVYLDLLRNYAQKNPNFELHLIDSTKDGYLNFEQKEVPEHATVYMCGPISMMKALAKQIKKQNPKTELIYEGFKFK
notes: residues 2-400, N-terminal 6xHis-PreScission tag cleaved, E. coli C41(DE3), LMNG micelles, monomer, 46 kDa, two b-type hemes and FAD
Which results are given for B1?
Km: 3.41 µM; kcat: 3.33 s⁻¹
